Test results from patent US20210161894A1, “Compositions and Methods for Modulating Liver Endothelial Cell Fenestrations” (priority 2017, published 2021).
“Also recorded” adds a separate entry of the source.

What was measured:
LSEC fenestrations = test: SEM of LSEC fenestrations after drug treatments (Example 2, FIGS. 1-6); format: cell-based, mice; conditions: for sieve plates and fenestration density on SEM images: young and old mice; for change in fenestration diameter: TRAIL 1 μg/ml
How it was run: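 Liver cells from young (3-4) and old (20-24 months) C57B16 mice, n=3 each, incubated 30 mins at 37° C, 5% CO2 in RPMI with or without drug; livers perfusion-fixed in 1% glutaraldehyde/4% para-formaldehyde. Blinded SEM at 10,000×; values are mean±SD of 8 images, 616-3312 fenestrations per treatment.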

[1] = test system: isolated LSECs (liver sinusoidal endothelial cells); test: SEM of fenestrations in isolated LSECs from young and old mice after 30 min drug treatment (second Example 7); format: cell-based; conditions: for Diameter / Frequency / Porosity: 30 min; for effect on porosity and fenestration frequency (summary in words): young and old LSECs
fenestrations [2] = conditions: young mice; cited from earlier work
fenestrations [3] = conditions: young (7 month) and old (24 month) mice; cited from earlier work
Intracellular cGMP = test: Cyclic GMP ELISA; format: cell-based, mice; conditions: p=0.001
Description: Assays for MTT and cGMP were performed as instructed by the kit. Briefly, MTT assays were performed following drug treatments. Cells were washed with PBS and incubated with RPMI media containing […] MTT solution. Cells were incubated at 37° C. for 4 hrs and lysed with […] solubilisation solution, 30 mins colour development followed and measured at 570 nm using a spectrophotometer. cGMP assays were also performed after drug treatments. Cells were washed with PBS and lysed with 0.1M HCl. Following sample collection the sample was acetylated and prepared with kit reagents. Samples were incubated for 18 hrs at 4° C. before examination at 410 nm with a spectrophotometer.

[4] = test system: actin cytoskeleton of LSECs; test: dSTORM imaging of the actin cytoskeleton; format: cell-based; conditions: young mice
How it was run: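 LSECs fixed in 4% paraformaldehyde, permeabilised with Triton-X, blocked with 5% BSA and stained with Alexa Fluor 488 phalloidin, then imaged by dSTORM in OxEA buffer (up to 40,000 frames at ~75 fps). 5-8 whole-cell images per dose, collected blinded, were reconstructed and analysed for sieve plates, actin structures and densitometry.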

[5] = test system: human umbilical vein endothelial cells; conditions: 15 mins of 1 μg/ml treatment; cited from earlier work

COc1cc(CC(C)N)c(OC)cc1I (centres unmarked) [DOI, 2,5-Dimethoxy-4-iodoamphetamine]
change in fenestration porosity (LSEC fenestrations; old mice, Cytochalasin D 0.5 μg/ml, DOI 0.1 μg/ml, 7KC 9 μM, Amlodipine 20 ng/ml): increased porosity
change in fenestration frequency (LSEC fenestrations; old mice, Cytochalasin D 0.5 μg/ml, DOI 0.1 μg/ml, 7KC 9 μM, Bosentan 0.1 μM, Sildenafil 300 ng/ml, Amlodipine 20 ng/ml): increased
sieve plates and fenestration density on SEM images (LSEC fenestrations): maintained sieve plates and increased fenestration density
Change in Frequency, Old ([1]; old mice, 0.1 μg/ml): ↑ (ns)
Diameter ([1]; old mice, 0.1 μg/ml): 135.27 ± 29.71 nm
Frequency ([1]; old mice, 0.1 μg/ml): 3.06 ± 1.00 no/area
Porosity ([1]; old mice, 0.1 μg/ml): 4.44 ± 1.07 %
Diameter ([1]; old mice, 1 μg/ml): 155.28 ± 15.33 nm
Frequency ([1]; old mice, 1 μg/ml): 0.67 ± 0.31 no/area
Porosity ([1]; old mice, 1 μg/ml): 1.31 ± 0.47%
effect on porosity and fenestration frequency (summary in words) [1]: LSECs from old mice only were responsive
Diameter ([1]; young mice, 0.1 μg/ml): 133.57 ± 9.78 nm
Frequency ([1]; young mice, 0.1 μg/ml): 3.40 ± 1.56 no/area
Porosity ([1]; young mice, 0.1 μg/ml): 4.91 ± 2.02%
Diameter ([1]; young mice, 1 μg/ml): 135.64 ± 21.21 nm
Frequency ([1]; young mice, 1 μg/ml): 0.83 ± 0.75 no/area
Porosity ([1]; young mice, 1 μg/ml): 1.45 ± 1.27%
fenestration porosity and diameter (previously reported) (fenestrations [2]): increase fenestration porosity in young mice without any significant effects on fenestration diameter
fenestrations after in vivo administration (fenestrations [3]): increased fenestrations only in young (7 month) but not old (24 month) mice

B1: Tumor necrosis factor-related apoptosis inducing ligand (protein, UniProt P50591 1-281, looked up)
Tumor necrosis factor ligand …: MAMMEVQGGPSLGQTCVLIVIFTVLLQSLCVAVTYVYFTNELKQMQDKYSKSGIACFLKEDDSYWDPNDEESMNSPCWQVKWQLRQLVRKMILRTSEETISTVQEKQQNISPLVRERGPQRVAAHITGTRGRSNTLSSPNSKNEKALGRKINSWESSRSGHSFLSNLHLRNGELVIHEKGFYYIYSQTYFRFQEEIKENTKNDKQMVQYIYKYTSYPDPILLMKSARNSCWSKDAEYGLYSIYQGGIFELKENDRIFVSVTNEHLIDMDHEASFFGAFLVG
notes: death receptor 4/5 promoter
increase of intracellular cGMP (Intracellular cGMP): 3 fold
sieve plate grouping on SEM images (LSEC fenestrations; old mice): greater fenestration sieve plate grouping
fenestration porosity (LSEC fenestrations; old mice, 1 μg/ml): 2.7±0.1%
change in fenestration diameter (LSEC fenestrations; old mice, 7KC 4.5 μM, Bosentan 0.1 μM, Sildenafil 300 ng/ml): No changes in diameter
sieve plates and fenestration density on SEM images (LSEC fenestrations): promoted increased fenestration density and maintained sieve plate fenestration clustering
fenestration frequency (LSEC fenestrations; young mice, 1 μg/ml): 4.5±0.4 number/μm^2
fenestration porosity (LSEC fenestrations; young mice, 1 μg/ml): 7.2±1.5%
change in fenestration diameter (LSEC fenestrations; young mice, Bosentan 0.1 μM, Sildenafil 300 ng/ml): No changes in diameter
actin changes with drug treatments (dSTORM) [4]: absence of the intense actin clustering; also recorded: Disordered actin structure; also recorded: Gap formations; also recorded: Minimal actin clustering
Diameter ([1]; old mice, 1 ng/ml): 127.50 ± 15.53 nm
Frequency ([1]; old mice, 1 ng/ml): 1.97 ± 0.49 no/area
Porosity ([1]; old mice, 1 ng/ml): 2.79 ± 0.14%
Diameter ([1]; old mice, 10 ng/ml): 120.08 ± 3.74 nm
Frequency ([1]; old mice, 10 ng/ml): 2.13 ± 0.48 no/area
Porosity ([1]; old mice, 10 ng/ml): 2.85 ± 0.53%
Diameter ([1]; old mice, 100 ng/ml): 130.88 ± 17.00 nm
Frequency ([1]; old mice, 100 ng/ml): 2.03 ± 0.53 no/area
Porosity ([1]; old mice, 100 ng/ml): 2.97 ± 0.46%
effect on porosity and fenestration frequency (summary in words) [1]: LSECs from young mice only demonstrated significant increases in porosity and frequency
dose response on fenestration porosity (words) ([1]; young mice): did not promote greater changes in fenestration porosity or frequency; also recorded: had the greatest activity and similar maximal efficacy to NMN but was more potent; also recorded: limited dosage range for positive effects on fenestration porosity
increase in fenestration frequency ([1]; young mice): 40%
increase in porosity ([1]; young mice): 60%
Diameter ([1]; young mice, 1 ng/ml): 137.95 ± 8.12 nm
Frequency ([1]; young mice, 1 ng/ml): 4.47 ± 0.43 no/area
Porosity ([1]; young mice, 1 ng/ml): 7.17 ± 1.49 %
Change in Porosity, Young ([1]; young mice, 10 ng/ml): ↑ (ns)
Diameter ([1]; young mice, 10 ng/ml): 140.36 ± 3.22 nm
Frequency ([1]; young mice, 10 ng/ml): 3.73 ± 0.46 no/area
Porosity ([1]; young mice, 10 ng/ml): 6.24 ± 0.52 %
Diameter ([1]; young mice, 100 ng/ml): 145.87 ± 6.77 nm
Frequency ([1]; young mice, 100 ng/ml): 3.15 ± 0.27 no/area
Porosity ([1]; young mice, 100 ng/ml): 5.49 ± 0.63%
fenestration numbers, fenestrated cell area and sieve plate formation ([1]; young mice, sildenafil 0.3 μg/ml, amlodipine 20 ng/ml, TRAIL 1 ng/ml): increased fenestration numbers and overall fenestrated cell area with some disruption to sieve plate formation
NOS and phosphorylated NOS [5]: upregulate NOS and phosphorylated NOS
